Data on 14 molecules can be found in patent US20250051474A1, “ANTI-CD97 ANTIBODIES AND ANTIBODY-DRUG CONJUGATES” (New York University, priority 2023, published 2025).

Assay [1] deals with T1, CD97 (ADGRE5) isoform 1 ectodomain, purified and biotinylated (human, UniProt P48960 21-552, limits assumed, biotinylated in vitro using the BirA enzyme).
T1 construct: the whole entry for isoform 1 is named here; also called CD97 isoform 1; Biotinylated CD97 isoform 1
T1 sequence: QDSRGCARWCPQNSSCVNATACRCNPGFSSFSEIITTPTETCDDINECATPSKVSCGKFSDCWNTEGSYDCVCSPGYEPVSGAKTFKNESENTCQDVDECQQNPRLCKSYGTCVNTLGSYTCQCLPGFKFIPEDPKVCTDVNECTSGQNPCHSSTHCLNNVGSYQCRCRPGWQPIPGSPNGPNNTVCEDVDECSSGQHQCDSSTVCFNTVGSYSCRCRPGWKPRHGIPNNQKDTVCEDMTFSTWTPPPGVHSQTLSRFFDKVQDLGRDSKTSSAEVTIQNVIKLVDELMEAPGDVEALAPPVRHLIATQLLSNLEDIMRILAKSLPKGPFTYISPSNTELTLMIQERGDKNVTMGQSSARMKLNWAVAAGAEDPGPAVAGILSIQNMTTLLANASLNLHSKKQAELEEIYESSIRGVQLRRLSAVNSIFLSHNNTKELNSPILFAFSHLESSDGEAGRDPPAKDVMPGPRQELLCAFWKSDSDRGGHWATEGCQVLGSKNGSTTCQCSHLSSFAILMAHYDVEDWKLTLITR
Briefly: bead-based binding titration (biotinylated antigen on streptavidin beads, flow cytometry), 1:1 fit. Background: Flow cytometry measures light scatter and fluorescence of single cells or particles in a stream.

In assay [2] the target is T2, CD97 (ADGRE5) isoform 2 ectodomain, purified and biotinylated (human, UniProt P48960 21-552, biotinylated in vitro using the BirA enzyme).
T2 construct: the whole entry for isoform 2 is named here; also called CD97 isoform 2
T2 sequence: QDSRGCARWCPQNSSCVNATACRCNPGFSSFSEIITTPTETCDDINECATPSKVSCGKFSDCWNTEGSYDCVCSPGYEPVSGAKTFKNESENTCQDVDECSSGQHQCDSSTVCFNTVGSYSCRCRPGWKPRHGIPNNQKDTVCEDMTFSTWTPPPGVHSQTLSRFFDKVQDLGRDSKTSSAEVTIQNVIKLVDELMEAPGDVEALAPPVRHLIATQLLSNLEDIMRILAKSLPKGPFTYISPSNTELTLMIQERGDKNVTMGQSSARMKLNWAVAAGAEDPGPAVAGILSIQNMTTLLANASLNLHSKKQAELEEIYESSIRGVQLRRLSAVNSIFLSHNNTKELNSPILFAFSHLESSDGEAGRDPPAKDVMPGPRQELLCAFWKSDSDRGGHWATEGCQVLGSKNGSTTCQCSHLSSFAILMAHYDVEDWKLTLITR
The description is as above.

Assay [3] deals with T1, CD97 (ADGRE5) isoform 1 ectodomain, …. The description is as above. The source holds these as a separate data set.
In assay [4] the target is T2, CD97 (ADGRE5) isoform 2 ectodomain, …. The assay is described as above. This is another data set of the same source.
Assay [5] addresses Endogenous CD97 on the cell surface (human) (UniProt P48960). Briefly: cell-based binding titration on OCI-AML3 cells, flow cytometry, 1:1 fit.

Like-named read-outs stand apart in the source and are kept apart here.

B1: Fab A1 (Fab, V domains shown)
VH: EVQLVESGGGLVQPGGSLRLSCAASGFTISSSSIHWVRQAPGKGLEWVASIYSYYGSTYYADSVKGRFTISADTSKNTAYLQMNSLRAEDTAVYYCARPVYGQLGYWTQRWSGMDYWGQGTLVTVSS
VL: DIQMTQSPSSLSASVGDRVTITCRASQSVSSAVAWYQQKPGKAPKLLIYSASSLYSGVPSRFSGSRSGTDFTLTISSLQPEDFATYYCQQYSWSSYLITFGQGTKVEIKR
notes: first discovery campaign; also called Antibody Clone A1
Take B1: the Kd in assay [1] and in assay [2] was 1.7 nM throughout.

B2: Fab B34 (Fab, V domains shown)
VH: EVQLVESGGGLVQPGGSLRLSCAASGFTVSYSSIHWVRQAPGKGLEWVASIYSSSGYTSYADSVKGRFTISADTSKNTAYLQMNSLRAEDTAVYYCARSYYRYYLSPIYWGSWGMDYWGQGTLVTVSS
VL: DIQMTQSPSSLSASVGDRVTITCRASQSVSSAVAWYQQKPGKAPKLLIYSASSLYSGVPSRFSGSRSGTDFTLTISSLQPEDFATYYCQQSGYYGHLITFGQGTKVEIKR
notes: first discovery campaign; also called Antibody Clone B34
For the molecule B2, the equilibrium dissociation constant (Kd) (in general, a measure of binding affinity in units of concentration) in assay [1] came out at 2.5 nM; in assay [2] it was 2.7 nM.

B3: Fab B3 (Fab, V domains shown)
VH: EVQLVESGGGLVQPGGSLRLSCAASGFTFSSSSIHWVRQAPGKGLEWVASISPYSGYTSYADSVKGRFTISADTSKNTAYLQMNSLRAEDTAVYYCARAYYYWSHWYMHYVSYPGGMDYWGQGTLVTVSS
VL: DIQMTQSPSSLSASVGDRVTITCRASQSVSSAVAWYQQKPGKAPKLLIYSASSLYSGVPSRFSGSRSGTDFTLTISSLQPEDFATYYCQQLRHYSHLITFGQGTKVEIKR
notes: first discovery campaign; also called Antibody Clone B3
B3: the Kd in assay [1] is 5.8 nM; in assay [2] it was 4.3 nM.

B4: Fab B23 (Fab, V domains shown)
VH: EVQLVESGGGLVQPGGSLRLSCAASGFTVSSSSIHWVRQAPGKGLEWVASIYPYSGSTSYADSVKGRFTISADTSKNTAYLQMNSLRAEDTAVYYCARSLGWHRHYNYYFYFYANAIDYWGQGTLVTVSS
VL: DIQMTQSPSSLSASVGDRVTITCRASQSVSSAVAWYQQKPGKAPKLLIYSASSLYSGVPSRFSGSRSGTDFTLTISSLQPEDFATYYCQQYWGSDPITFGQGTKVEIKR
notes: first discovery campaign; also called Antibody Clone B23
As to B4, the Kd in assay [1] and in assay [2] was 0.9 nM each time.

B5: Fab C14 (Fab, V domains shown)
VH: EVQLVESGGGLVQPGGSLRLSCAASGFTVSSSSIHWVRQAPGKGLEWVASIYSYSGSTSYADSVKGRFTISADTSKNTAYLQMNSLRAEDTAVYYCARSFGWGQSFYYSHYFYITAFDYWGQGTLVTVSS
VL: DIQMTQSPSSLSASVGDRVTITCRASQSVSSAVAWYQQKPGKAPKLLIYSASSLYSGVPSRFSGSRSGTDFTLTISSLQPEDFATYYCQQYWHESLITFGQGTKVEIKR
notes: first discovery campaign; also called Antibody Clone C14
As to B5, the values for the dissociation constant Kd in assay [1] and in assay [2] were 4.7 nM and 5 nM, respectively.

B6: Fab 2Z11 (Fab, V domains shown)
VH: EVQLVESGGGLVQPGGSLRLSCAASGFTFYYSSIHWVRQAPGKGLEWVASIYSYSGYTSYADSVKGRFTISADTSKNTAYLQMNSLRAEDTAVYYCARYYISGPYYAYRSYTSYAMDYWGQGTLVTVSS
VL: DIQMTQSPSSLSASVGDRVTITCRASQSVSSAVAWYQQKPGKAPKLLIYSASSLYSGVPSRFSGSRSGTDFTLTISSLQPEDFATYYCQQYWGYSLITFGQGTKVEIKR
notes: second discovery campaign; biotinylated Fab in the bead assay; also called Antibody Clone 2Z11
Consider B6, for which the Kd was determined as 3.4 nM in assay [3] and 3 nM in assay [4].

B7: hIgG1_LALA D25 (antibody, V domains shown)
VH: EVQLVESGGGLVQPGGSLRLSCAASGFTFSSSSIHWVRQAPGKGLEWVASISPYYGSTSYADSVKGRFTISADTSKNTAYLQMNSLRAEDTAVYYCARKLEWGMFFWSPYFRALDYWGQGTLVTVSS
VL: DIQMTQSPSSLSASVGDRVTITCRASQSVSSAVAWYQQKPGKAPKLLIYSASSLYSGVPSRFSGSRSGTDFTLTISSLQPEDFATYYCQQSSSSLITFGQGTKVEIK
Turning to B7, in assay [5], the equilibrium dissociation constant (Kd) came to 1 nM.

B8: hIgG1_LALA 2W1 (antibody, V domains shown)
VH: EVQLVESGGGLVQPGGSLRLSCAASGFTVSSSSIHWVRQAPGKGLEWVAYISSSSGSTYYADSVKGRFTISADTSKNTAYLQMNSLRAEDTAVYYCARDFYFGSYYSFGWGLDYWGQGTLVTVSS
VL: DIQMTQSPSSLSASVGDRVTITCRASQSVSSAVAWYQQKPGKAPKLLIYSASSLYSGVPSRFSGSRSGTDFTLTISSLQPEDFATYYCQQDSSYPITFGQGTKVEIK
Take B8: the equilibrium dissociation constant (Kd) in assay [5] amounted to 25 nM.

B9: hIgG1_LALA 2Z3 (antibody, V domains shown)
VH: EVQLVESGGGLVQPGGSLRLSCAASGFTFSSSSIHWVRQAPGKGLEWVASISSSSGSTSYADSVKGRFTISADTSKNTAYLQMNSLRAEDTAVYYCARVLLGKFWYYNYYEYSAMDYWGQGTLVTVSS
VL: DIQMTQSPSSLSASVGDRVTITCRASQSVSSAVAWYQQKPGKAPKLLIYSASSLYSGVPSRFSGSRSGTDFTLTISSLQPEDFATYYCQQSSSSLITFGQGTKVEIK
Take B9: the dissociation constant (Kd) in assay [5] worked out at 140 nM.

B10: Antibody clone C27, human IgG1 LALA-PG format (antibody, V domains shown)
VH: EVQLVESGGGLVQPGGSLRLSCAASGFTLSSSSIHWVRQAPGKGLEWVASIYSYYGSTYYADSVKGRFTISADTSKNTAYLQMNSLRAEDTAVYYCARYRGNMYYWESWYGSYWALDYWGQGTLVTVSS
VL: DIQMTQSPSSLSASVGDRVTITCRASQSVSSAVAWYQQKPGKAPKLLIYSASSLYSGVPSRFSGSRSGTDFTLTISSLQPEDFATYYCQQSSSSLITFGQGTKVEIKR
For B10, the Kd in assay [5] worked out at 9.6 nM.

B11: Fab B20 (Fab, V domains shown)
VH: EVQLVESGGGLVQPGGSLRLSCAASGFTISSSSIHWVRQAPGKGLEWVASISSSSGSTSYADSVKGRFTISADTSKNTAYLQMNSLRAEDTAVYYCARIRHYHWYEIPYWDWAIDYWGQGTLVTVSS
VL: DIQMTQSPSSLSASVGDRVTITCRASQSVSSAVAWYQQKPGKAPKLLIYSASSLYSGVPSRFSGSRSGTDFTLTISSLQPEDFATYYCQQSSSSLITFGQGTKVEIKR
notes: first discovery campaign; also called Antibody Clone B20
Consider B11, for which the dissociation constant Kd is 2.3 nM in assay [1] and 2.9 nM in assay [2].

B12: Fab B25 (Fab, V domains shown)
VH: EVQLVESGGGLVQPGGSLRLSCAASGFTISSSSIHWVRQAPGKGLEWVASISSYSGSTSYADSVKGRFTISADTSKNTAYLQMNSLRAEDTAVYYCARSFFKYYLWYGYHNYWSAIDYWGQGTLVTVSS
VL: DIQMTQSPSSLSASVGDRVTITCRASQSVSSAVAWYQQKPGKAPKLLIYSASSLYSGVPSRFSGSRSGTDFTLTISSLQPEDFATYYCQQSSSSLITFGQGTKVEIKR
notes: first discovery campaign; also called Antibody Clone B25
For the molecule B12, the Kd in assay [1] is 5.8 nM; in assay [2] it was 5.5 nM.

B13: Antibody clone 2V10, human IgG1 LALA-PG format (antibody, V domains shown)
VH: EVQLVESGGGLVQPGGSLRLSCAASGFTISSSSIHWVRQAPGKGLEWVAYIYPSSGSTSYADSVKGRFTISADTSKNTAYLQMNSLRAEDTAVYYCARPWYYSTFNKKWWDYQGLDYWGQGTLVTVSS
VL: DIQMTQSPSSLSASVGDRVTITCRASQSVSSAVAWYQQKPGKAPKLLIYSASSLYSGVPSRFSGSRSGTDFTLTISSLQPEDFATYYCQQSWWDPITFGQGTKVEIKR
In the case of B13, in assay [5], the Kd came to 0.3 nM.

B14: Fab 2Z7 (Fab, V domains shown)
VH: EVQLVESGGGLVQPGGSLRLSCAASGFTFSSSSIHWVRQAPGKGLEWVASISSSSGSTSYADSVKGRFTISADTSKNTAYLQMNSLRAEDTAVYYCARSYWERYYYWYYFYQYELGLDYWGQGTLVTVSS
VL: DIQMTQSPSSLSASVGDRVTITCRASQSVSSAVAWYQQKPGKAPKLLIYSASSLYSGVPSRFSGSRSGTDFTLTISSLQPEDFATYYCQQSSSSLITFGQGTKVEIKR
notes: second discovery campaign; biotinylated Fab in the bead assay; also called Antibody Clone 2Z7
With B14, the dissociation constant (Kd) was found to be 38 nM in assay [3] and 30 nM in assay [4].
